Measured values: publication PMC3458246 (Scientific Reports, 2012)

Target: the molecule itself
Assay: SEC

B1: Death Associated Protein Kinase 1 (DAPK1) K42W, HA tagged, kinase dead (enzyme, human, UniProt P53355 1-1430, looked up)
chain: MTVFRQENVDDYYDTGEELGSGQFAVVKKCREKSTGLQYAAWFIKKRRTKSSRRGVSREDIEREVSILKEIQHPNVITLHEVYENKTDVILILELVAGGELFDFLAEKESLTEEEATEFLKQILNGVYYLHSLQIAHFDLKPENIMLLDRNVPKPRIKIIDFGLAHKIDFGNEFKNIFGTPEFVAPEIVNYEPLGLEADMWSIGVITYILLSGASPFLGDTKQETLANVSAVNYEFEDEYFSNTSALAKDFIRRLLVKDPKKRMTIQDSLQHPWIKPKDTQQALSRKASAVNMEKFKKFAARKKWKQSVRLISLCQRLSRSFLSRSNMSVARSDDTLDEEDSFVMKAIIHAINDDNVPGLQHLLGSLSNYDVNQPNKHGTPPLLIAAGCGNIQILQLLIKRGSRIDVQDKGGSNAVYWAARHGHVDTLKFLSENKCPLDVKDKSGEMALHVAARYGHADVAQLLCSFGSNPNIQDKEEETPLHCAAWHGYYSVAKALCEAGCNVNIKNREGETPLLTASARGYHDIVECLAEHGADLNACDKDGHIALHLAVRRCQMEVIKTLLSQGCFVDYQDRHGNTPLHVACKDGNMPIVVALCEANCNLDISNKYGRTPLHLAANNGILDVVRYLCLMGASVEALTTDGKTAEDLARSEQHEHVAGLLARLRKDTHRGLFIQQLRPTQNLQPRIKLKLFGHSGSGKTTLVESLKCGLLRSFFRRRRPRLSSTNSSRFPPSPLASKPTVSVSINNLYPGCENVSVRSRSMMFEPGLTKGMLEVFVAPTHHPHCSADDQSTKAIDIQNAYLNGVGDFSVWEFSGNPVYFCCYDYFAANDPTSIHVVVFSLEEPYEIQLNQVIFWLSFLKSLVPVEEPIAFGGKLKNPLQVVLVATHADIMNVPRPAGGEFGYDKDTSLLKEIRNRFGNDLHISNKLFVLDAGASGSKDMKVLRNHLQEIRSQIVSVCPPMTHLCEKIISTLPSWRKLNGPNQLMSLQQFVYDVQDQLNPLASEEDLRRIAQQLHSTGEINIMQSETVQDVLLLDPRWLCTNVLGKLLSVETPRALHHYRGRYTVEDIQRLVPDSDVEELLQILDAMDICARDLSSGTMVDVPALIKTDNLHRSWADEEDEVMVYGGVRIVPVEHLTPFPCGIFHKVQVNLCRWIHQQSTEGDADIRLWVNGCKLANRGAELLVLLVNHGQGIEVQVRGLETEKIKCCLLLDSVCSTIENVMATTLPGLLTVKHYLSPQQLREHHEPVMIYQPRDFFRAQTLKETSLTNTMGGYKESFSSIMCFGCHDVYSQASLGMDIHASDLNLLTRRKLSRLLDPPDPLGKDWCLLAMNLGLPDLVAKYNTSNGAPKDFLPSPLHALLREWTTYPESTVGTLMSKLRELGRRDAADFLLKASSVFKINLDGNGQEAYASSCNSGTSYNSISSVVSR
stoichiometry N: 2
